According to PMC7305299, “Nonsense-mediated mRNA decay factor UPF1 promotes aggresome formation” (Nature Communications, 2020):

Target: T1, FLAG-UPF1-HP (UniProt Q92900-2 1-1118, G495R | G497E, hyperphosphorylated in cells (detected with an anti-phospho-(S/T)Q antibody); sites not stated)
T1 construct: UPF1 with G495R and G497E in the helicase domain; also called FLAG-UPF1-(G495R/G497E); hyperphosphorylated UPF1; source: HEK293T, transiently transfected (pcDNA3-FLAG-UPF1-HP), in RNase A-treated cell extract
T1 sequence (looked up): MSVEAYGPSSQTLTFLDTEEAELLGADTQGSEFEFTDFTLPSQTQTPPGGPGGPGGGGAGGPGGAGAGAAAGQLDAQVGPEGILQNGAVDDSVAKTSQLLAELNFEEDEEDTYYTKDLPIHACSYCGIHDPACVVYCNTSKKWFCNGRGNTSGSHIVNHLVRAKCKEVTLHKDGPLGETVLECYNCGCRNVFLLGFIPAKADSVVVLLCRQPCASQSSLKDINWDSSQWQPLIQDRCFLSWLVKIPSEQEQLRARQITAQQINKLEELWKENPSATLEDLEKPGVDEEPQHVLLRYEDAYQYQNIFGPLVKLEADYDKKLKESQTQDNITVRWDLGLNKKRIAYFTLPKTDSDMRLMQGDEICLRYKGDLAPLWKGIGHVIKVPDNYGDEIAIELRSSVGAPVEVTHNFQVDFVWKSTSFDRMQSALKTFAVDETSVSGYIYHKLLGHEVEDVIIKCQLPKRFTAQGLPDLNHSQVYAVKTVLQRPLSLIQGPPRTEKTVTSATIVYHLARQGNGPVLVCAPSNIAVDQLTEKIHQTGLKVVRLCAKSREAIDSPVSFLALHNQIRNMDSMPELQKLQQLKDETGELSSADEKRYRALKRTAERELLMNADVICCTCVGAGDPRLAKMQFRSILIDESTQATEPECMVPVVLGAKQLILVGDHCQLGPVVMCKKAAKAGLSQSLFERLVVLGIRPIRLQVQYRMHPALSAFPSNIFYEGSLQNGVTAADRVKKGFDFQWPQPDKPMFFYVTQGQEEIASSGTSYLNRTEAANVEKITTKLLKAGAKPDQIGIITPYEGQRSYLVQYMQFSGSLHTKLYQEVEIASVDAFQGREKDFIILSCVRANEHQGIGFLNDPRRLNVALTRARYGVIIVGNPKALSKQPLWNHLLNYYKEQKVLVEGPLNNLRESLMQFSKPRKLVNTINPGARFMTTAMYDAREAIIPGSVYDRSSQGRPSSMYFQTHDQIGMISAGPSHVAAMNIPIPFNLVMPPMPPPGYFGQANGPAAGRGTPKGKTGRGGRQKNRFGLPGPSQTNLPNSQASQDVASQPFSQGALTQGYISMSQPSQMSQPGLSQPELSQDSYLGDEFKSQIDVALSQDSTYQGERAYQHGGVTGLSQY
Assay: co-IP; anti-FLAG IP of FLAG-UPF1 (WT or a variant) from RNase A-treated extracts of transiently transfected HEK293T cells; cells treated with DMSO or MG132 for 12 h (Fig. 5a,b), for polypeptidyl-puro with MG132 12 h and puromycin 1 h (Fig. 5d), with or without eEF1A1 siRNA (Fig. 5e); NET-2 buffer, 4 °C; western blotting
Conditions: partners not purified

fold more co-immunopurified than with UPF1-WT or UPF1-HP-12A: ~5 fold
B1: DCP1A, cellular (natural protein, human (endogenous in HEK293T), UniProt Q9NPI6 1-582, looked up)
chain: MEALSRAGQEMSLAALKQHDPYITSIADLTGQVALYTFCPKANQWEKTDIEGTLFVYRRSASPYHGFTIVNRLNMHNLVEPVNKDLEFQLHEPFLLYRNASLSIYSIWFYDKNDCHRIAKLMADVVEEETRRSQQAARDKQSPSQANGCSDHRPIDILEMLSRAKDEYERNQMGDSNISSPGLQPSTQLSNLGSTETLEEMPSGSQDKSAPSGHKHLTVEELFGTSLPKEQPAVVGLDSEEMERLPGDASQKEPNSFLPFPFEQLGGAPQSETLGVPSAAHHSVQPEITTPVLITPASITQSNEKHAPTYTIPLSPVLSPTLPAEAPTAQVPPSLPRNSTMMQAVKTTPRQRSPLLNQPVPELSHASLIANQSPFRAPLNVTNTAGTSLPSVDLLQKLRLTPQHDQIQTQPLGKGAMVASFSPAAGQLATPESFIEPPSKTAAARVAASASLSNMVLAPLQSMQQNQDPEVFVQPKVLSSAIPVAGAPLVTATTTAVSSVLLAPSVFQQTVTRSSDLERKASSPSPLTIGTPESQRKPSIILSKSQLQDTLIHLIKNDSSFLSTLHEVYLQVLTKNKDNHNL
notes: DCP1A (component of the decapping complex), cellular protein co-immunopurified from HEK293T extracts; source: endogenous, HEK293T extract
